From patent publication US20190309079A1 (Regeneron, published 2019)
One block for each binder: values may come before it.

Legend:
human LEPR CRH1 (D1)-MMH = target: T1, human LEPR CRH1 (D1)-MMH (human, UniProt P48357 22-229, limits assumed); assay: Luminex, myc-captured protein on beads
T1 construct: domain: CRH1 (D1)
T1 sequence (looked up): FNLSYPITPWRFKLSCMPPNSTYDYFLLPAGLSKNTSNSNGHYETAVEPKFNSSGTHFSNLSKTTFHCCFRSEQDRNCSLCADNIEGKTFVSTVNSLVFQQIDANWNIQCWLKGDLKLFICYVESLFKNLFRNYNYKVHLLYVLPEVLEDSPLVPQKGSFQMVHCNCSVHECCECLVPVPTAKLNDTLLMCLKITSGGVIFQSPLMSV
Description: Aliquots of microspheres with immobilized anti-myc monoclonal antibodies, prepared as described above, were added individually to 1 mL of the each of these protein supernatants. The microspheres were gently mixed, incubated for two hours at 25° C., washed twice with 1 mL of DBPS, centrifuged to remove the supernatant and finally resuspended in 1 mL of DPBS buffer. […] of anti-myc IgG coupled microspheres from individual reactions with full length human LEPR and with each of the human LEPR domain proteins were withdrawn and mixed together in 3.6 mL of PBS+20 mg/mL BSA+0.05% sodium azide (blocking buffer).
From this mixed pool, 75 μL of microspheres were plated per well on a 96 well filter plate (Millipore, Cat. No: MSBVN1250) and mixed with 25 μL of individual anti-human LEPR monoclonal antibodies (0.5 or 5 μg/mL), incubated for two hours at 25° C. and then washed twice with 200 μL of DPBS with 0.05% Tween 20 (washing buffer). […] After 30 minutes, the samples were washed twice with 200 µL of washing buffer and resuspended in 150 μL of wash buffer. The Median Fluorescence intensity (MFI) of the microspheres was measured in a Luminex Analyzer.

[1] = target: T2, extracellular domain of human LEPR (amino acids 22-839 of P48357, Isoform B) with N-terminal myc-myc tag, … (human, UniProt P48357 22-839, GPI anchor at the C-terminus); assay: FACS, 10 nM Ab, HEK293/hLEPR-GPI, no added Leptin
T2 construct: also called HEK293/Mycx2-hLepR(Ecto)-GPI anchored cells
T2 sequence: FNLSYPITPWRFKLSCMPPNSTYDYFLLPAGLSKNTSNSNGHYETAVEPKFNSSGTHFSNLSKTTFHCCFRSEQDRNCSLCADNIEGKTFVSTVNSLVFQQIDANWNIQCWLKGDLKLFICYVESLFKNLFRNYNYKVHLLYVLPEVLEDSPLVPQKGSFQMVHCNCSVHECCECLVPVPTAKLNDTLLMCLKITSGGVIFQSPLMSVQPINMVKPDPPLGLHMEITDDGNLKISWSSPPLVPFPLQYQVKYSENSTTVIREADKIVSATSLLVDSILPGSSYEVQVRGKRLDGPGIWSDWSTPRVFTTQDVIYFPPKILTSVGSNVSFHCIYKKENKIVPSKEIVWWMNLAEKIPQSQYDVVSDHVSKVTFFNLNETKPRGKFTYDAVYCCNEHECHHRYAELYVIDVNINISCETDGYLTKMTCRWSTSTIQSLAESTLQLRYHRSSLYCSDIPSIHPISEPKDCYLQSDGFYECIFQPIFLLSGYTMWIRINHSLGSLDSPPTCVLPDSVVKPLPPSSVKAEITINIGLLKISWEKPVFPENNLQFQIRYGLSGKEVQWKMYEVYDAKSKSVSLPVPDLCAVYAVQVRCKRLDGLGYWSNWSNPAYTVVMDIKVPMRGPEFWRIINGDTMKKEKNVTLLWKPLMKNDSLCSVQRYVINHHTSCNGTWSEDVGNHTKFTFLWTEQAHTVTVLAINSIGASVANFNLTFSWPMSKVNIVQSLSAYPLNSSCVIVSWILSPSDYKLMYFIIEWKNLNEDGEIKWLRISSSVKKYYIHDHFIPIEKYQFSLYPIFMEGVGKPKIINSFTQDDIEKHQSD
Description: (§1) For the FACS analysis, HEK293 parental cells and HEK293/hLEPR-GPI cells were dissociated and plated onto 96-well v-bottom plates at 5×10⁵ cells/well in PBS containing 2% FBS (FACS buffer). […] Cells were subsequently fixed using BD CytoFix™ (Becton Dickinson, #554655), filtered, and analyzed on a HyperCyt Flow Cytometer (Beckman Coulter). Unstained and secondary antibody alone controls were also tested for all cell lines. The results were analyzed using ForeCyt (IntelliCyt) and FlowJo version 10 software to determine the geometric means of fluorescence for viable cells. The geometric mean of fluorescence for each sample was then normalized to the geometric mean of unstained cells to obtain relative binding per condition referred to as “binding ratios”, and these binding ratios were recorded for each antibody tested.

[2] = target: T2, extracellular domain of human LEPR …; assay: FACS, 10 nM Ab, HEK293/hLEPR-GPI, 1 uM Leptin
Description: as §1

[3] = target: T3, extracellular domain portion of LEPR protein expressed with a C-terminal human Fc tag (hLEPR.hFc) (human); assay: blocking ELISA, hLeptin coated
T3 construct: also called dimeric human LEPR
Description: These antibody-protein or protein-protein complexes were then incubated for 1.5 hour at room temperature (RT). […] Samples were developed with a TMB solution (BD Biosciences, #555214; substrate A and B mixed at 1:1 ratio as per manufacturer's instructions) to produce a colorimetric reaction and then neutralized with 1M sulfuric acid before measuring absorbance at 450 nm on a Victor X5 plate reader.
Data analysis was performed using a sigmoidal dose-response model within Prism™ software (GraphPad).

[4] = target: rat LEPR extracellular domain expressed with a C-terminal myc-myc-hexahistidine tag (rLEPR.mmh) (rat, UniProt Q62959 22-839); assay: SPR, captured mAb, 25C and 37C
Description: (§2) Equilibrium dissociation constants (KD values) for LEPR binding to purified anti-LEPR monoclonal antibodies were determined using a real-time surface plasmon resonance biosensor using a Biacore 4000 instrument. All binding studies were performed in 10 mM HEPES, 150 mM NaCl, 3 mM EDTA, and 0.05% v/v Surfactant Tween-20, pH 7.4 (HBS-ET) running buffer at 25° C. and 37° C. The Biacore sensor surface was first derivatized by amine coupling with a monoclonal mouse anti-human Fc antibody (GE, # BR-1008-39) to capture anti-LEPR monoclonal antibodies. […] Kinetic association (kₐ) and dissociation (kd) rate constants were determined by fitting the real-time binding sensorgrams to a 1:1 binding model with mass transport limitation using Scrubber 2.0c curve-fitting software. Binding dissociation equilibrium constants (KD) and dissociative half-lives (t½) were calculated from the kinetic rate constants as: […]

[5] = target: mouse LEPR extracellular domain expressed with a C-terminal myc-myc-hexahistidine tag (mLEPR.mmh) (mouse, UniProt P48356 22-839); assay: SPR, captured mAb, 25C and 37C
Description: as §2

mouse LEPR extracellular domain expressed with a C-terminal myc-myc-hexahistidine tag (mLEPR.mmh), sequence (P48356 other isoform, or with tags, fused parts or gaps): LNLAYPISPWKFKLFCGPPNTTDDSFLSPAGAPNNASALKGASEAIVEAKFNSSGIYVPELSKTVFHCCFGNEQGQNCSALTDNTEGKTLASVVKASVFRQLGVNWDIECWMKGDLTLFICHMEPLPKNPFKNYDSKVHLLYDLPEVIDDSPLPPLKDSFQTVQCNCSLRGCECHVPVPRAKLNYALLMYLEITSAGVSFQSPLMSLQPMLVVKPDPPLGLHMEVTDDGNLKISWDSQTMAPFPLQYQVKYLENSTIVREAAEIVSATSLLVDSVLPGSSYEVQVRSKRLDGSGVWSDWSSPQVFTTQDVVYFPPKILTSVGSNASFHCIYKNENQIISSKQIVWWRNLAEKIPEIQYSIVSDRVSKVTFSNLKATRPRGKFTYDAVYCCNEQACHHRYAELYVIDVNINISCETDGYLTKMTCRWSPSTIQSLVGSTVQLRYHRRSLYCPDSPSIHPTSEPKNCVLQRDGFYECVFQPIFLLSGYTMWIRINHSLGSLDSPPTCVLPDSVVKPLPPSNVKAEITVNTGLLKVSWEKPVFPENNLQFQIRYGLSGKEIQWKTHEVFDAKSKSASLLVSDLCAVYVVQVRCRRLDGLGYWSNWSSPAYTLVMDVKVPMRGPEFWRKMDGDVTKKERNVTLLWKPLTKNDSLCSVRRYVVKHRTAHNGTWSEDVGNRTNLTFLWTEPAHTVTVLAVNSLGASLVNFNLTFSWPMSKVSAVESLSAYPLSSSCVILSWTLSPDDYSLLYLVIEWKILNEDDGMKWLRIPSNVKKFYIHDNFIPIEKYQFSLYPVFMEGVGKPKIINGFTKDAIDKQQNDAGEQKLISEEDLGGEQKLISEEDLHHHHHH
rat LEPR extracellular domain expressed with a C-terminal myc-myc-hexahistidine tag (rLEPR.mmh), sequence (Q62959 other isoform, or with tags, fused parts or gaps): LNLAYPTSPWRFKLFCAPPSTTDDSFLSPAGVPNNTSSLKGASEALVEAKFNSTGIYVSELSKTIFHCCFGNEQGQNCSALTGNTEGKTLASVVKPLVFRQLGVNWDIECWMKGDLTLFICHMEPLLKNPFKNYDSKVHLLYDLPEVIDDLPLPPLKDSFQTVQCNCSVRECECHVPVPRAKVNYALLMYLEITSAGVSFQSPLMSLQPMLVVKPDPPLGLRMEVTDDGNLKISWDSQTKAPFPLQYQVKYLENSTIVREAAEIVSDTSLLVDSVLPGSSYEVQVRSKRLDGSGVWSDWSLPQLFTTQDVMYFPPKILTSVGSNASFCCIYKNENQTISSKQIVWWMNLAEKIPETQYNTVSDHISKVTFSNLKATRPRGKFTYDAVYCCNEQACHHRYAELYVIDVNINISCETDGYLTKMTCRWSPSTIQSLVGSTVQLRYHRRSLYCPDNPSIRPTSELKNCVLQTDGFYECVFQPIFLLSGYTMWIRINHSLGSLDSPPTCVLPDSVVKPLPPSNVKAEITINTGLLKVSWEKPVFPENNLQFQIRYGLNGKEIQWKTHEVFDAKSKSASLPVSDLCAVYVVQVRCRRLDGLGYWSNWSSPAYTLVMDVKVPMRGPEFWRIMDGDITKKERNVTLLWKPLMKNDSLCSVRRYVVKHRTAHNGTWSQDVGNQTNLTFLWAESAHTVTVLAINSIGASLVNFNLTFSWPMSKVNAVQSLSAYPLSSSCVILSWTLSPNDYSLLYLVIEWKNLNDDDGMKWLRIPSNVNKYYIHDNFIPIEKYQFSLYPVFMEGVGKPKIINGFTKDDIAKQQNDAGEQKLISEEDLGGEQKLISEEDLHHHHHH

Luminex MFI (human LEPR CRH1 (D1)-MMH): 8 MFI | Binding Ratio (normalized to unstained) [1]: 2420 fold | Binding Ratio (normalized to unstained) [2]: 3120 fold | 500 nM Ab Blocking of 10 nM hLEPR.hFc Binding to hLeptin (% blockade) [3]: -7% | binding result [4]: no binding (tested: 100 nM) | binding result [5]: no binding (tested: 100 nM)
B1: H4H16650P2 (antibody, V domains shown)
VH: QVQLVESGGGVVQPGKSLRLSCVASGFTFSSDAMYWVRQAPGKGLEWVAVIYYDGNYQYYEDSVKGRFTISRDNSQNTLDLQMNSLRVDDTAVYFCARLNWDYWYLDLWGRGTLVTVSS
VL: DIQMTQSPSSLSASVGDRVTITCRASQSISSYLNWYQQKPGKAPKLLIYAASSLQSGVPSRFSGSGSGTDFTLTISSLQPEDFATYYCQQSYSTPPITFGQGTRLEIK

Luminex MFI (human LEPR CRH1 (D1)-MMH): 12 MFI | Binding Ratio (normalized to unstained) [1]: 2020 fold | Binding Ratio (normalized to unstained) [2]: 2490 fold | 500 nM Ab Blocking of 10 nM hLEPR.hFc Binding to hLeptin (% blockade) [3]: 28% | binding result [4]: no binding (tested: 100 nM) | binding result [5]: no binding (tested: 100 nM)
B2: H4H18445P2 (antibody, human IgG4, V domains shown)
VH: QVQLQESGPGLVKPSQTLSLTCTVSGGSISSGGDYWSWIRQLPGKGLEWIGYIYYSGSAYYNPSLKSRGTISIDTSKNQFSLKLTSVTAADTAVYFCVKLRFLEWFLGGWFGPWGQGTLVTVSS
VL: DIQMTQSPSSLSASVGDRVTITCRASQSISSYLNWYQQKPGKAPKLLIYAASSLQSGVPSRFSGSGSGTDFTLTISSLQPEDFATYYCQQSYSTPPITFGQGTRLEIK
notes: human IgG4 Fc

Luminex MFI (human LEPR CRH1 (D1)-MMH): 12 MFI | Binding Ratio (normalized to unstained) [1]: 2060 fold | Binding Ratio (normalized to unstained) [2]: 2220 fold | 500 nM Ab Blocking of 10 nM hLEPR.hFc Binding to hLeptin (% blockade) [3]: 7% | binding result [4]: no binding (tested: 100 nM) | binding result [5]: no binding (tested: 100 nM)
B3: H4H16679P2 (antibody, V domains shown)
VH: QVQLVESGGGVVQPGRSLRLSCTASGFTFSSYAMYWVRQAPGKGLEWVSVIYYDGSYKYYADSVKGRFTISRDNSKNTLYLQMDSLRAEDTAVYYCASYNWNYWYFDFWGRGTLVTVSS
VL: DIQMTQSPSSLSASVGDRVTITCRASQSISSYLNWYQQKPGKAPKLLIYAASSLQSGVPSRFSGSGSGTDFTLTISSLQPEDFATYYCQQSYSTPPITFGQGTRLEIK

Luminex MFI (human LEPR CRH1 (D1)-MMH): 9 MFI | 500 nM Ab Blocking of 10 nM hLEPR.hFc Binding to hLeptin (% blockade) [3]: 6% | binding result [4]: no binding (tested: 100 nM) | binding result [5]: no binding (tested: 100 nM)
B4: H4H17321P2 (antibody, V domains shown)
VH: QVQLVESGGGVVQPGRSLRLSCEASGFSSSDNAMYWVRQAPGKGLEWVSVIYHDGSYKYYEDSVKGRFTIARDNSKNTLYLQMNSLRAEDTAVYYCARYNWNHWYFDVWGRGTLVTVSS
VL: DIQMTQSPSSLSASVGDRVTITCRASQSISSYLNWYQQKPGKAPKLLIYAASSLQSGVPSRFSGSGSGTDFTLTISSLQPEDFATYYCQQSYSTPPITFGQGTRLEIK

Luminex MFI (human LEPR CRH1 (D1)-MMH): 20 MFI | Binding Ratio (normalized to unstained) [1]: 3370 fold | Binding Ratio (normalized to unstained) [2]: 3110 fold | 500 nM Ab Blocking of 10 nM hLEPR.hFc Binding to hLeptin (% blockade) [3]: 8% | binding result [4]: no binding (tested: 100 nM) | binding result [5]: no binding (tested: 100 nM)
B5: H4H18449P2 (antibody, human IgG4, V domains shown)
VH: EVQLVESGGGLVQPGGSLRLSCVASGFTFNKYDMHWVRQTTGKGLEWVSGIDTDGDTYYPGSVKGRFTISRENAENSLYLQMNGLRVGDTAVYYCARWPWSGFYGAFDIWGQGTMVTVSS
VL: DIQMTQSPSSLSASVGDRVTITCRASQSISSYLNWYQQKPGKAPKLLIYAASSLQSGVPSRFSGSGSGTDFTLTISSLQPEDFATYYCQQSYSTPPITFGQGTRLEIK
notes: human IgG4 Fc

Luminex MFI (human LEPR CRH1 (D1)-MMH): 13 MFI | Binding Ratio (normalized to unstained) [1]: 1490 fold | Binding Ratio (normalized to unstained) [2]: 2410 fold | 500 nM Ab Blocking of 10 nM hLEPR.hFc Binding to hLeptin (% blockade) [3]: 15% | binding result [4]: no binding (tested: 100 nM) | binding result [5]: no binding (tested: 100 nM)
B6: H4H18438P2 (antibody, V domains shown)
VH: QVQLVESGGGVVQPGRSLRLSCAASGFSFNTYGMHWVRQAPGKGLEWVTIIWYDGSIKYYADSVKGRFTISRDNSKNTLYLQMNSLRAEDTAVYYCARGGYSGYLYFDYWGQGTLVTVSS
VL: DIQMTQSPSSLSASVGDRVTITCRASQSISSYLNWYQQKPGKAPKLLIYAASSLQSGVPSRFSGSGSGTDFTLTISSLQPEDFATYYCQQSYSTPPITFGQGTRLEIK

Luminex MFI (human LEPR CRH1 (D1)-MMH): 17 MFI | 500 nM Ab Blocking of 10 nM hLEPR.hFc Binding to hLeptin (% blockade) [3]: -5% | binding result [4]: no binding (tested: 100 nM) | binding result [5]: no binding (tested: 100 nM)
B7: H4H18446P2 (antibody, human IgG4, V domains shown)
VH: EVQLVESGGGLVQPGGSLRLSCAASGFTFSNYGMTWVRQAPGKGLEWVSAITGGGGSTYYSNSVKGRFTISRDNSKNTVYLRMNSVRAEDTAVYYCAKYKWNFVDDWGQGTTVTVSS
VL: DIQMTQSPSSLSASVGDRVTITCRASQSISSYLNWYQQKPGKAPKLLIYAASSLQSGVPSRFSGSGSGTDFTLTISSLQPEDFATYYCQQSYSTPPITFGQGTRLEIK
notes: human IgG4 Fc

Luminex MFI (human LEPR CRH1 (D1)-MMH): 8 MFI | 500 nM Ab Blocking of 10 nM hLEPR.hFc Binding to hLeptin (% blockade) [3]: 9% | binding result [4]: no binding (tested: 100 nM) | binding result [5]: no binding (tested: 100 nM)
B8: H4H17319P2 (antibody, V domains shown)
VH: QVQLVESGGSVVQPGRSLRLSCAASGFTFSTYAMYWVRQTPGKGLEWVAVLYSDGSNKYYIDSVKGRFTISRDTSTNTLYLQMSSLRADDSALYYCARLNWDYWYFDLWGRGTLVTVSS
VL: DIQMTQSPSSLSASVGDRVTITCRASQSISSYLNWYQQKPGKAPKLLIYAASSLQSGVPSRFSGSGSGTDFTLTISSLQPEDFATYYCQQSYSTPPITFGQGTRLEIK
notes: also called REGN4461

Luminex MFI (human LEPR CRH1 (D1)-MMH): 10 MFI | Binding Ratio (normalized to unstained) [1]: 1840 fold | Binding Ratio (normalized to unstained) [2]: 2600 fold | 500 nM Ab Blocking of 10 nM hLEPR.hFc Binding to hLeptin (% blockade) [3]: 16% | binding result [4]: no binding (tested: 100 nM) | binding result [5]: no binding (tested: 100 nM)
B9: H4H18417P2 (antibody, V domains shown)
VH: QVQLVESGGGVVQPGRSLRLSCAASGFTFSTYGMHWVRQAPGKGLEWVSVISYDESNKYYADSVKGRFTISRDNSKNALYLQMNSLRNEDTAVYYCARDRPFGLVTGWFDPWGQGTLVTVSS
VL: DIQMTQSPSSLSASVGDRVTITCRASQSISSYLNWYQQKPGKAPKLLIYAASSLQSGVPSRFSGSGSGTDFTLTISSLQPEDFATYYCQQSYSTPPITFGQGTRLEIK
